The domain aggregation screens of Martell et al. (2025)

Assay: soluble fraction after stress (log2 fold change); higher = more stays soluble; pooled small domains, quantitative proteomics
Conditions: stress: 75 degC
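Also: 20 min heating vs room temperature control held 20 min.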

Compared with “HMSLPAYIKISEVIARRINAGQILAGDRLPNERTMAVEFGVAVGTLRKALYHLQVRGLVTRKHGSGNYINK”, “HMSLPKIVVPTDVTVSQLAKYLEVDAISIIKQLFGMGVVASLNQRLEDEIIQLIGNEFGKEIIFSE” is higher in “soluble fraction (log2)” value: -0.221 for the first, 0.162 for the second.

First: HMSLPQSKDAVITILRTLPQLDTRAPEVYKLLGPHALDIILEDPEQVAKKINHVGVATAKLWQQALLGFK
Second: HMSLQDYYQVLGVFYNAGDKEIKRRWKELINQYHPDLAQAKGASPEEIENYTLKMAEINNAYEQIMKSRKA
The “soluble fraction (log2)” value of the first is lower: -0.751 for the first, -0.396 for the second.

First: HMSLSASELDQLRMMTKVSHMYHTRGMVQIDIARSLGLSQARVSRLLSAAEDANIVRTVVVA
Second: HMSLTAQVFTDRGKVLLSENKFTEAIDQFTKALAMDKVYIEALNRRIEAYQHLGLTELAAKDEALLGTL
The “soluble fraction (log2)” value of the first is higher: -0.392 for the first, -1.16 for the second.

First: HMSLTPSQDANRSAILDAARDLFARYGFKKTTMEDIAMALRKGKSSLYYYFKNKEDIFQAVIDS
Second: HMSMDAVSLANRLLRFFQKRPGRKFTAADLAFETGMNERTGKSLVTSALEILSRTNQIEADGDGFRLKM
The “soluble fraction (log2)” value of the first is lower: -1.25 for the first, 0.0354 for the second.

First: HMSMEIQEIIRQLREKNDWSQEDMAERVGLSKNGYAKIERGETNLNLERLEQIANLFDLSVIDLIEMS
Second: HMSMEKNWVPSEDVIEILTRAGMNENFIRELIPEFIIYWSERKDVLISYDSKFIEHARLKWAQHNAE
The “soluble fraction (log2)” value of the first is lower: -0.764 for the first, 0.454 for the second.

Going from “HMSMFTPAQVAQTLTVPPSTLRRWAKRFAPFLSPQSGKKRTYTVADLDTFQRIKELSAQGYTFAQIDQAL” to “HMSMLSQERQSLILDIIKEQGSVTVTRLTEILQSSESTVRRDLSYLASKGKINKVHGGATALG”, the “soluble fraction (log2)” value rises from -1.32 to -0.39.

Compared with “HMSMNGNMIHATVIWKGRYFLVKMFFPQLTKPKRAEVQAQIEKAYPGSRVASYHITDYKPGEQFLHV”, “HMSMPEVLSDRELEIFRMIGTGMSTGDIAKKLNISVNTIESHRKKIKDKLGIQKGSELVKAAVQWVSTQQ” is higher in “soluble fraction (log2)” value: -1.84 for the first, -0.741 for the second.

Going from “HMSMSVLFSELDQKDAGVIVEKLKERKIPYELQSGGSAIMVPANVLHETRLQLAAEGLPQSS” to “HMSMTVHGALRLLQLPTIADRPYTLKEIREAYREQAQNHHPDAGGSADAMRRLNEAYQFLKERYRQA”, the “soluble fraction (log2)” value falls from -0.0383 to -0.449.

Going from “HMSNEKVVKFAQELLVDEERSAISPALISAKIDQVLMFKPAWNEGLDRDAVVNELVRRFSIW” to “HMSNGFFELKTSQQDELIDLIDSHTNFVRTKIEGELITAFLKLPMDAEEFNKLLFTNGIILSHLVKRK”, the “soluble fraction (log2)” value rises from -1.24 to -0.713.

First: HMSNIIGNTAYSAIPDKQYFRLKSETAEKVANYLTENNIPFSGRINGDKTTLTIGQKNVDDYKAAVATVTG
Second: HMSNIVNYEVYVYQNDAWDLLARYPSEKRAEAIEYAKSTEFSLNRPTKVIRETYDLDTQKFQEALIYLSE
The “soluble fraction (log2)” value of the first is higher: 0.0528 for the first, -0.743 for the second.

First: HMSNLNHSFQYKKNIGRKISLTYLGRDNESISKIYELIDSNDSGILVKNKNVEIFIHYEKIVSAKIKVS
Second: HMSNLTDLVSAKEAEVYLHFLESGSTAGMTEAELRAVRKIEELIQSNKIDYNGILRIRNETVK
The “soluble fraction (log2)” value of the first is lower: -1.78 for the first, 0.0216 for the second.

“HMSNNLAYSQFLDRVKNKEIRKVEIRGQSIVGYTSNNETFKTYAPLNDPKMYDELLTNDVQVQVDPP” and “HMSNQLAVPDVTNMKANAAADRLRQQGLRVELKTESSNTVPRGMAIRTDPAASTMVARGGRVTLIISSGKG” are within 0.2 log units of each other in “soluble fraction (log2)” value: -0.0765 for the first, -0.248 for the second.

Going from “HMSNSGFVKNNGKTEFYDASGRQAKSSWINISGKWYYFDLNGTMVTGWQRISNKWYYFLEDGSK” to “HMSNSMISKDKAMSIALAKVSGATSSNIYIELEKDDGRYTYEGEINFNNKEYEFEIDAYTGNILKWEVDSI”, the “soluble fraction (log2)” value falls from -0.0724 to -0.806.

Going from “HMSNTPHSREVLLEMDAVRRLLAVGEEKGEVDRADLQGAFEEAELGRGDLDGVLSILREYDVPLAR” to “HMSNVIYFNYNDYKFLFMGDAGVDKETDILEKYTLSNIDFLKVGHHGSDTSSNKGFIDSIQPKYSLIS”, the “soluble fraction (log2)” value falls from 0.0604 to -1.53.

First: HMSNWTILIIQGSAHLIDLDSKITEIDGFGSFPTKILQDYNLNEEFEIFDTNVKMVNSVQSDLQSN
Second: HMSNYIVELSSSEKIDDIDNNNNLINSFFSKSDSQWEYKLVFKNKNEMDVFVKKISTNNKIISYKTSS
The “soluble fraction (log2)” value of the first is lower: -2.48 for the first, -1.17 for the second.

First: HMSPAETGIYHILVENGKPNRHGLDATNKNENWLRQFLITQNTRLEDVFLLLADDGGGIRFFKSQ
Second: HMSPAPVSVDHLAFPTRDLEATDHFYSKVVGATLVHAESGYSPSWKSDYLLITYALPDGTRLSFFDWP
The “soluble fraction (log2)” value of the first is lower: -1.26 for the first, 0.105 for the second.

First: HMSPDTREAILAAARTAFARDGYQTSLRGIARDAGVDPALVHHYFPDRATLFAKAVIESTAG
Second: HMSPFAHHLHELRMRHGIRQNELAELIGYDQTYISALEVGLKGPPTPEFVDKLVEGLALSRTEEAALRSAA
The “soluble fraction (log2)” value of the first is higher: -0.0532 for the first, -0.483 for the second.

Compared with “HMSPFYALDEVDSFLDGVNVERLAALIARQAEQAQFLVVSHRRPMIGASTRTIGVTQARGAHTQVVGLP”, “HMSPGAKIEVTGNTVNLRAGPGTNYDTRGQVKKGEQLPLLGEQGGWYRVQTSRGVAYLAGWLARVLT” is lower in “soluble fraction (log2)” value: -0.312 for the first, -1.43 for the second.

Compared with “HMSPLDSHLGRRIALRRQQLNTSAADLEKAISMVPGSVARFEAGRQSLNATQLFTLSRALDVPVLYFFEG”, “HMSPREDQQSRKQHILEAAAVLFAERGYYKTTTADVARAVGVTQPYVFHFFKSKEELYLAVL” is higher in “soluble fraction (log2)” value: -0.705 for the first, 0.163 for the second.

Compared with “HMSPSDLSAEAQKVYALLDGRELSFDTLVEESGFDTGSLLAILMRLEMKMLVEHGADQVYRRSG”, “HMSPVKAPLPGVVLDIHVSVGQEVKASDTVVTLEAMKMENAIKAGVDGKVASISVGKGDSVLEGAVLLTI” is higher in “soluble fraction (log2)” value: -1.51 for the first, -0.0893 for the second.

Going from “HMSQAVTMLKAGRLLANSKGTGAAVRDLEPGMLLYPTGQKDGTMWEVEDEMGNKGWVNSTSMQLA” to “HMSQDEKITNYIYEGNKNTQTEAFVEAEKSYRKALSLSPEKPEALYNLGNTHFLDKQYDEASQRFF”, the “soluble fraction (log2)” value falls from 0.271 to 0.0479.

Compared with “HMSQDINVFIKTNPENATIIWDGESKGTNGIFKSNAGAHRLRIEMQGYESIDQDIQVSDKQFSFEYNLKKE”, “HMSQIANLLLSKNIKVNNQNIIYYETVLKYLPNNEKKEFFINAMKNNIYFTEEEIKNFGNIFN” is lower in “soluble fraction (log2)” value: 0.138 for the first, -2.74 for the second.

Going from “HMSQIQIKLDQAIMQLPEKQRFVFMLRYFEELPYEKIAQITETSIGGAKANFHQALKKMQEIIQ” to “HMSQKVQEDFLGDIRKNEIAVTVFLINGVKLQGVITWFDDASILLRRDGHTQLIYKHAVSTIMPGVAVDI”, the “soluble fraction (log2)” value rises from -2.96 to -0.582.

“HMSQLYINATDDGWVIGNLPADAREVLLTTLGGQVVARYHVTAPSLRVKAPRKGVYIVSVETA” and “HMSQQVVTDGVNLRLRYAPSPDAETYKWADGTNRHPEKGERFPYLGDIGDFYRIDYKGLVLYVSKQHTHL” are within 0.2 log units of each other in “soluble fraction (log2)” value: -2.11 for the first, -2.04 for the second.

First: HMSQRITYTEFVQMVKDDKVEKVEVGANQYNITPKSDDKTLVKMTYYTGFIKDENLLDLLNKHKVEIDGYI
Second: HMSQSIGQEKALSIALADAGVQKENALGLEVKGEYDDGQLLYEVEFRAGGVEYEYEVRASDGRIVKAERD
The “soluble fraction (log2)” value of the first is lower: -0.792 for the first, 0.0638 for the second.

First: HMSQSMEVLYTDLTDKDAAAIVEKLEEEKIPYQLEDQGTTILVPPGVKYTTRLKLAAEDLPKG
Second: HMSQYVPDPVLNAALVGYLDFRKQAGKPMTDYSIRLLLVDLAKLSGNPQEQAAILDQSTKNNWIGVYALG
The “soluble fraction (log2)” value of the first is higher: 0.0723 for the first, -3.04 for the second.

Compared with “HMSRAARLALDALPDEWAQFAESRGLAGSAMAETWETFRDYWQAQPGQKGVKADWAATWRNWVRRETQNRG”, “HMSRDYKTELQERLQVNGPVKIEYQVIAEDESKPSFKVQLLVNDKKISEGQGRNKKAAEQQAAQAAL” is higher in “soluble fraction (log2)” value: -0.378 for the first, 0.0103 for the second.

“HMSREEFLTELRKALQGRVSQQTVNDNLRYYEEYILTESHKGKTEAEVIAELGNPRLLAKSIIDAENAT” and “HMSRESNISTGRQLLEAQLPTWGYKKVEDIPSKQMKTALDAFNYKDVESLLQGLGEGSVALTTALRRLMP” are within 0.2 log units of each other in “soluble fraction (log2)” value: 0.0701 for the first, -0.095 for the second.

Compared with “HMSRFLEGILQRRAGGKNYFVPDDGSNPIFIADRNSAGAANGDRVRIAQFARRPRSGPEGEVVEILKRAK”, “HMSRGAIVTGTVIEKNQSGIYVDLGYKSDGIVPIEEFDGEESKYNVGDQIRVYVKKVDDGHGQLML” is higher in “soluble fraction (log2)” value: -0.0772 for the first, 0.142 for the second.

“HMSRGTRIDPNWQPSPEDRALARAEGFSDPEIDREALQFRDYWLGASGSNAVKLDWSATWRNWVRRAATNF” and “HMSRKERERSQHRRDILAAGEKIFAQKGYFNATIEEIAREAEFSVGTIYNFFSNKETLYQEIIRSI” are within 0.2 log units of each other in “soluble fraction (log2)” value: -0.396 for the first, -0.418 for the second.

Compared with “HMSRLQDAELQAQIDKMAGAMQLRDIPVYVQDIPTINGLAAPDGRVFITQGFIDKYKLGEVSAGEIASVI”, “HMSRPLISNMLRLLNLPPTVQRKVAAGVISAGHARALLGLNDEKEIEKLANRIVAEGLSVRATEEIVAIA” is lower in “soluble fraction (log2)” value: 0.29 for the first, -1.62 for the second.

First: HMSRWHEFLNKSEDGMKELDEQNQKVLTLLILQRFYQTPFQAKEDEEFYREFFERLSSVNEILG
Second: HMSSAYLTVRGIDIDVIYKDIKNLHIAVYPPFGRVRVAAPSHLDDDQVRLAVIQRLTWIKRQRERLRST
The “soluble fraction (log2)” value of the first is higher: -0.468 for the first, -1.62 for the second.

“HMSSDEAEYKLLLGQEGVAKSPLRPSGVVDFSGRRLDVQTLGDFIESGETVVVKQVNGHRVLVERK” and “HMSSDEEQLATLTRLLQKQEQIIQTLGPRNPMVSLQQYANTITKVIEMAGFKDTSQFINSQIP” are within 0.2 log units of each other in “soluble fraction (log2)” value: 0.135 for the first, 0.0951 for the second.

Compared with “HMSSDLESVIGTHSQEANFALRSWGWIQPDETWKNLRPDQVSQILERANEFMAKAIESFANAQSE”, “HMSSDLLGVRVRRARARAGLTRRRLSLLSGVSERFLAQLESGQGNISIVLIRRVAAALGAELVELIGS” is lower in “soluble fraction (log2)” value: -0.141 for the first, -0.555 for the second.

Compared with “HMSSEDTQSRDRARKELSNEMSRIMKRYGLDYQPRDNADDIMNRLKAAGADENTLAYVQEKLK”, “HMSSEITYDKFIEMVDKDQVKEVTLQSGVLTVVPKIQKSYYQNASYKVNQMEDVDALTKRLEGTGIVFHY” is higher in “soluble fraction (log2)” value: -0.0442 for the first, 0.322 for the second.
